# Reference: article PMC7774954 (PLoS ONE, 2020)
# Where no end group is shown, it is not given here. The star is where a group is joined. Biotin = O=C1N[C@H]2[C@H](CS[C@H]2CCCCC(=O)*)N1; TTDS = NCCCOCCOCCOCCCNC(=O)CCC(=O)*
# T1: PDZD7-3, third PDZ domain of PDZD7 (human, UniProt Q9H5P4 862-934)
# T1 construct: PDZD7, human, PDZ domain 3; not shown: His6, N-terminal, kept; MBP, N-terminal, kept
# T1 sequence (looked up): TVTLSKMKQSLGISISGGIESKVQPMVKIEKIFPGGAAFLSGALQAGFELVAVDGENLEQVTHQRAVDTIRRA
# T2: NHERF1-1 (human, UniProt O14745 14-94)
# T2 construct: PDZ domain number 1 of human NHERF1; also called NHERF1 PDZ dom 1; first PDZ domain of the NHERF1 protein; source: E. coli, in crude cell lysate; not shown: His, N-terminal, kept
# T2 sequence (looked up): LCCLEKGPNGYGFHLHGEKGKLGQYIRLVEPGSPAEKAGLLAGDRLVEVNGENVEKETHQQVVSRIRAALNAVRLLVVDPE
# T3: PARD3B-1, first PDZ domain of PARD3B (human, UniProt Q8TEW8 201-289)
# T3 construct: PARD3B, human, PDZ domain 1; not shown: His6, N-terminal, kept; MBP, N-terminal, kept
# T3 sequence (looked up): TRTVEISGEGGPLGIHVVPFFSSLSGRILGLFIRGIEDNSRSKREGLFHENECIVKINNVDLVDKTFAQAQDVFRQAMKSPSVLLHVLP
# T4: PTPN13-2 (human, UniProt Q12923 1368-1452)
# T4 construct: PDZ domain number 2 of human PTPN13; also called PTPN13 PDZ dom 2; source: E. coli, in crude cell lysate; not shown: His, N-terminal, kept
# T4 sequence (looked up): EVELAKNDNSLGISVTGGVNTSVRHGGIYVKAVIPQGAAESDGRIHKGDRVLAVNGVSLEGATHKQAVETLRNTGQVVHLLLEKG
# B1: PTEN_11, 11-mer wild-type PDZ-binding motif peptide of PTEN (peptide)
# peptide: {Biotin-TTDS}-DEDQHTQITKV
# notes: Labelled 'PTEN' in Supp; source: synthetic peptide (Chemical Peptide Synthesis Service of the IGBMC)
# B2: PTEN_KR, 11-mer PTEN PDZ-binding motif peptide with K402R (peptide)
# peptide: {Biotin-TTDS}-DEDQHTQITRV
# notes: PTEN, human, canonical isoform I, residues 393-403 with K402R; source: synthetic peptide (Chemical Peptide Synthesis Service of the IGBMC)
# B3: PTEN_11 (peptide, UniProt P60484 393-403, looked up)
# peptide: {Biotin-TTDS}-DEDQHTQITKV
# notes: also called 11-mer wild-type PTEN PBM peptide; native PTEN_11 PBM; source: synthetic peptide (Chemical Peptide Synthesis Service of the IGBMC, Fmoc)
# B4: PTEN_Ac, 11-mer PTEN PDZ-binding motif peptide acetylated at K402 (peptide)
# peptide: {Biotin-TTDS}-DEDQHTQITK(Ac)V
# notes: PTEN, human, canonical isoform I, residues 393-403, K402 acetylated (acK); source: synthetic peptide (Chemical Peptide Synthesis Service of the IGBMC)
# B5: PTEN_Ac (peptide, UniProt P60484 393-403, looked up)
# peptide: {Biotin-TTDS}-DEDQHTQITK(Ac)V
# notes: also called acetylated version of PTEN_11; acetylated peptide; source: synthetic peptide (Chemical Peptide Synthesis Service of the IGBMC, Fmoc)
# B6: PTEN_KR (peptide, UniProt P60484 393-403, looked up)
# peptide: {Biotin-TTDS}-DEDQHTQITRV
# notes: also called K402R mutant; source: synthetic peptide (Chemical Peptide Synthesis Service of the IGBMC, Fmoc)
# B7: PTEN_13, 13-mer wild-type PDZ-binding motif peptide of PTEN (peptide)
# peptide: {Biotin-TTDS}-PFDEDQHTQITKV
# notes: source: synthetic peptide, bought: JPT Innovative Peptide Solutions (70%-80% purity)
# Assays:
# [1] = molecular target: T5, GRID2IP-2, second PDZ domain of GRID2IP (human, UniProt A4D2P6 279-356); experiment: fluorescence polarisation; competitive: pre-formed complex of PDZ domain (>60-80% complex) and 50 nM fluorescent tracer peptide, increasing amount of unlabeled PTEN peptide (8 concentrations); 20 mM HEPES pH 7.5, 150 mM NaCl, 0.5 mM TCEP, 0.01% Tween 20; triplicate; competitive binding model (ProFit); apparent; details: both partners purified
# T5 construct: GRID2IP, human, PDZ domain 2; not shown: His6, N-terminal, kept; MBP, N-terminal, kept
# [2] = molecular target: T1, PDZD7-3, third PDZ domain of PDZD7; experiment: as above; details: both partners purified
# NHERF1-1 = molecular target: T2, NHERF1-1; experiment: holdup assay; biotinylated PBM peptide saturating streptavidin resin (biotin resin as reference); tag-PDZ at 4 uM in crude E. coli lysate, 15 min, filtration, free tag-PDZ by capillary electrophoresis; singlicate; BI cut-off 0.20; BI converted into KD with the peptide concentration back-calculated from FP; details: one partner purified
# MAGI2-2 = molecular target: T6, MAGI2-2 (human, UniProt Q86UL8 426-510); experiment: as above; details: one partner purified
# T6 construct: PDZ domain number 2 of human MAGI2; also called MAGI2 PDZ dom 2; source: E. coli, in crude cell lysate; not shown: His, N-terminal, kept
# MAGI1-3 = molecular target: T7, MAGI1-3 (human, UniProt Q96QZ7 643-721); experiment: as above; details: one partner purified
# T7 construct: PDZ domain number 3 of human MAGI1; also called MAGI1 PDZ dom 3; source: E. coli, in crude cell lysate; not shown: His, N-terminal, kept
# MAGI2-3 = molecular target: T8, MAGI2-3 (human, UniProt Q86UL8 605-683); experiment: as above; details: one partner purified
# T8 construct: PDZ domain number 3 of human MAGI2; also called MAGI2 PDZ dom 3; source: E. coli, in crude cell lysate; not shown: His, N-terminal, kept
# DLG4-1 = DLG4-1 (human, UniProt P78352 65-151); experiment: as above; details: one partner purified
# [3] = molecular target: T3, PARD3B-1, first PDZ domain of PARD3B; experiment: fluorescence polarisation; direct: N-terminally fluorescein-labelled PBM peptide (tracer) with increasing amounts of MBP-PDZ; 384-well plates; triplicate; direct binding model (ProFit); details: both partners purified
# [4] = molecular target: T1, PDZD7-3, third PDZ domain of PDZD7; experiment: as above; details: both partners purified
# [5] = molecular target: T5, GRID2IP-2, second PDZ domain of GRID2IP; experiment: as above; details: both partners purified
# [6] = molecular target: T9, MAGI2-2, second PDZ domain of MAGI2 (human, UniProt Q86UL8 426-510); experiment: fluorescence polarisation; competitive: pre-formed complex of PDZ domain (>60-80% complex) and 50 nM fluorescent tracer peptide, increasing amount of unlabeled PTEN peptide (8 concentrations); 20 mM HEPES pH 7.5, 150 mM NaCl, 0.5 mM TCEP, 0.01% Tween 20; triplicate; competitive binding model (ProFit); apparent; details: both partners purified
# T9 construct: not shown: His6, N-terminal, kept; MBP, N-terminal, kept
# DLG1-2 = molecular target: T10, DLG1-2 (human, UniProt Q12959 319-405); experiment: holdup assay; biotinylated PBM peptide saturating streptavidin resin (biotin resin as reference); tag-PDZ at 4 uM in crude E. coli lysate, 15 min, filtration, free tag-PDZ by capillary electrophoresis; singlicate; BI cut-off 0.20; BI converted into KD with the peptide concentration back-calculated from FP; details: one partner purified
# T10 construct: PDZ domain number 2 of human DLG1; also called DLG1 PDZ dom 2; source: E. coli, in crude cell lysate; not shown: His, N-terminal, kept
# MAGI3-2 = molecular target: T11, MAGI3-2 (human, UniProt Q5TCQ9 410-492); experiment: as above; details: one partner purified
# T11 construct: PDZ domain number 2 of human MAGI3; also called MAGI3 PDZ dom 2; source: E. coli, in crude cell lysate; not shown: His, N-terminal, kept
# NHERF2-2 = molecular target: T12, NHERF2-2 (human, UniProt Q15599 150-230); experiment: as above; details: one partner purified
# T12 construct: PDZ domain number 2 of human NHERF2; also called NHERF2 PDZ dom 2; source: E. coli, in crude cell lysate; not shown: His, N-terminal, kept
# PARD3-3 = molecular target: T13, PARD3-3 (human, UniProt Q8TEW0 590-677); experiment: as above; details: one partner purified
# T13 construct: the text says PARD3-1; also called PARD3 PDZ dom 3; source: E. coli, in crude cell lysate; not shown: His, N-terminal, kept
# NHERF2-1 = molecular target: T14, NHERF2-1 (human, UniProt Q15599 11-90); experiment: as above; details: one partner purified
# T14 construct: PDZ domain number 1 of human NHERF2; also called NHERF2 PDZ dom 1; source: E. coli, in crude cell lysate; not shown: His, N-terminal, kept
# PTPN13-2 = molecular target: T4, PTPN13-2; experiment: as above; details: one partner purified
# T5 sequence (A4D2P6 279-356): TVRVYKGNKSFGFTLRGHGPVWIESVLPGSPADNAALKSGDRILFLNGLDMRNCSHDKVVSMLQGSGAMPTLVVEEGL
# Sequence of DLG4-1 (P78352 65-151, looked up): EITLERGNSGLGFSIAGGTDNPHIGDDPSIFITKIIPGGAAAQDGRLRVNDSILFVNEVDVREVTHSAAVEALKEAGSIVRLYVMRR
# T6 sequence (Q86UL8 426-510): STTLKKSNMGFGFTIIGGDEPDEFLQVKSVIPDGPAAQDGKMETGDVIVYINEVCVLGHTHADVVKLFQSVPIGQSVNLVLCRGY
# T8 sequence (Q86UL8 605-683): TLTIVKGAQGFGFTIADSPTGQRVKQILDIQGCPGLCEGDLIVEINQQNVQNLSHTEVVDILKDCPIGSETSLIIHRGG
# T7 sequence (Q96QZ7 643-721): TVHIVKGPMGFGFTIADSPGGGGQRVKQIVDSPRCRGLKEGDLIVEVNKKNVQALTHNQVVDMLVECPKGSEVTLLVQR
# T9 sequence (Q86UL8 426-510): as the sequence (Q86UL8 426-510) above
# T12 sequence (Q15599 150-230): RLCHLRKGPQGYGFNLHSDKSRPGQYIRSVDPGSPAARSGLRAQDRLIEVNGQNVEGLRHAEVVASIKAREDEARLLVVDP
# T13 sequence (Q8TEW0 590-677): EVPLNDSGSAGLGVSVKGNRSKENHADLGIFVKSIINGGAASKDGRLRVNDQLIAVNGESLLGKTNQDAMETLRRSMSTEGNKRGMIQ
# T11 sequence (Q5TCQ9 410-492): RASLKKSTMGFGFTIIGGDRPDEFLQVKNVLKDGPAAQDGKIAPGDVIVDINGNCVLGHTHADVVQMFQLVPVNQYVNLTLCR
# T14 sequence (Q15599 11-90): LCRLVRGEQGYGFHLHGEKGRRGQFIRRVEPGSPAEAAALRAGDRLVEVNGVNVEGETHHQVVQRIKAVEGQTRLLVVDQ
Binder,Kd [1] [µM],Kd [2] [µM],Kd (NHERF1-1) [µM],Kd (MAGI2-2) [µM],Kd (MAGI1-3) [µM],Kd (MAGI2-3) [µM],Kd (DLG4-1) [µM],further results
B1,87,20.1,,,,,,
B2,51.6,8.2,,,,,,
B3,,,33,152,30,47,293,
"fluorescein-KLPSTTL (source: synthetic peptide) [fRSK1, fluorescein-labelled RSK1 PBM peptide]",,,,,,,,Kd [3]: 33.7 µM; Kd [4]: 1.57 µM; Kd [5]: 5.43 µM
B4,36.7,2.84,,,,,,Kd [6]: 66.4 µM
B5,,,14,56,10,15,155,
B6,,,4,29,15,21,81,Kd (DLG1-2): 71 µM; Kd (MAGI3-2): 29 µM; Kd (NHERF2-2): 21 µM; Kd (PARD3-3): 56 µM; Kd (NHERF2-1): 120 µM; Kd (PTPN13-2): 153 µM
B7,,5.76,,,,,,Kd [6]: 79.7 µM
